Assay results: patent publication US20240425588A1 (published 2024)

T1: recombinant human TIGIT-His (SinoBiological) (UniProt Q495A1 22-141)
T1 chain: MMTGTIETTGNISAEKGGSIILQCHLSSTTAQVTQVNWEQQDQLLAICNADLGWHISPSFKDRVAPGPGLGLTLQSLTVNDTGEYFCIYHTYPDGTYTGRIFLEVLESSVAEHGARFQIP


Experiments:
[1] = biological target: T1, recombinant human TIGIT-His …; test: Biacore
[2] = biological target: Cynomolgus TIGIT; test: Biacore
[3] = biological target: T1, recombinant human TIGIT-His …; test: Biacore; 25°C

| Binder | Kd [1] | Kd [2] | Kd [3] |
| --- | --- | --- | --- |
| 45.32B10.A4 (antibody, V domains shown) VH: EVQLVESGGVLVKPGGSLKLSCAASGFTFSNYVMSWVRQTPEKRLEWVATITSGGTYTYYPDSVKGRFTISRDNAKNILYLQMSSLRSEDTALYYCTRWLLSLYAMDYWGQGTSVTVSS VL: DIQMTQTTSSLSASLGDRVTITCRASQDISNFLNWYQQKPDGTVKLLIYYTSRLHSGVPSRFSGSGSGTDYSLTISNLEQEDIATYFCQQGKTYPYTFGGGTKVEIK | 0.53 nM |  | 0.53 nM |
| 45.56F7.A1 (antibody, V domains shown) VH: EVQLVESGGALVKPGGSLKLSCAASGFTFSNYAMSWVRQTPEKRLEWVATISSGGSYTYYPDSVKGRFTISRDNAKNTLYLQMSSLRSEDTALYYCARWLLSLYAMDYWGQGTSVTVSS VL: DFQMTQTTSSLSASLGDRVTISCRSSQDISNYLNWYQQKPDGTVKLLIYRTSRLHSGVPSRFSGSGSGTDYSLTISNLEREDIATYFCQQGKTPPYTFGGGTKLEIK |  |  | 12 nM |
| 32B10 Original (antibody, V domains shown) VH: EVQLVESGGVLVKPGGSLKLSCAASGFTFSNYVMSWVRQTPEKRLEWVATITSGGTYTYYPDSVKGRFTISRDNAKNILYLQMSSLRSEDTALYYCTRWLLSLYAMDYWGQGTSVTVSS VL: DIQMTQTTSSLSASLGDRVTITCRASQDISNFLNWYQQKPDGTVKLLIYYTSRLHSGVPSRFSGSGSGTDYSLTISNLEQEDIATYFCQQGKTYPYTFGGGTKVEIK |  | 8.7 nM |  |
| 32B10 Affinity Matured (HAM) (antibody, V domains shown) VH: EVQLLESGGGLVQPGGSLRLSCAASGFTFSNYVMSWVRQAPGKGLEWVSTITSGGTYTYYPDSVKGRFTISRDNSKNTLYLQMNSLRAEDTAVYYCTRWLLSLYAMDYWGQGTTVTVSS VL: DIQMTQSPSSLSASVGDRVTITCRASQDISNFLNWYQQKPGKAVKLLLYYTSRLHSGVPSRFSGSGSGTDYTLTISSLQPEDFATYFCQQFKTYPYTFGGGTKVEIK |  | 6.73 nM |  |
| 32B10 Humanized (Hu) (antibody, V domains shown) VH: EVQLLESGGGLVQPGGSLRLSCAASGFTFSNYVMSWVRQAPGKGLEWVSTITSGGTYTYYPDSVKGRFTISRDNSKNTLYLQMNSLRAEDTAVYYCTRWLLSLYAMDYWGQGTTVTVSS VL: DIQMTQSPSSLSASVGDRVTITCRASQDISNFLNWYQQKPGKAVKLLLYYTSRLHSGVPSRFSGSGSGTDYTLTISSLQPEDFATYFCQQGKTYPYTFGGGTKVEIK |  | 26 nM |  |
| 45.49H11.H11 (antibody, V domains shown) VH: EVQLQQSGPELVKPGASVKMSCKTSKYTFTNYVLHWVKQKPGQGLEWIGYINPYNDGTKYNEKFKGKATLTSDKSSSTAYMELSSLTSEDSAVYYCARSYQSNYGFGYWGQGTLVTVSA VL: DIVMTQSHKFMSTSVGDRVSITCKASQHVSTAVVWYRQIPGQSPKILINSASYRYTGVPDRFTGSGSGTDFTFTISSVQAEDLAVYYCQQHYSIPWTFGGGTKLEIK |  |  | 1.04 nM |
| 45.50C2.A6 (antibody, V domains shown) VH: QVQLKESGPGLVAPSQSLSITCTVSGFSLTNYNINWIRQPPGKGLEWLGVIWTGGGTNYNSAFMSRLSISKDNSKSQVFLKMNRLQTDDTAIYYCVREAYFSNYGFYFDYWGQGTTLTVSS VL: EIVLTQSPTTMAASPGEKITITCSASSSISSNYLHWYQQKPGFSPKLLIYRTSNLASGVPARFSGSGSGTSYSLTIGTMEAEDVATYYCQQGSSIPRTFGGGTKLEIK | 0.386 nM |  | 0.386 nM |
| 45.32A8.G6 (antibody, V domains shown) VH: QVQLKESGPGLVAPSHSLSITCTVSGFSLTNYNINWIRQPPGKGLEWLGIIWTGGGTNYNSAFMSTLSINKDNSKSQVFLKMNRMQTDDTTIYYCVRETYFNNYGFYFDYWGQSTTLTVSS VL: EIVLTQSPTTMAASPGEKITITCSASSSISSNYLHWYQQKPGFSPKLLIYRTSNLASGVPARFSGSGSGTSYSLTIGTMEAEDVATYYCQQGSSIPRTFGGGTKLEIK |  |  | 0.428 nM |
| 45.3D7.F7 (antibody, V domains shown) VH: QVQLQQSGPELVKPGASVKISCKASGYGFSGYWMNWVKQGPGKGLEWIGRIFPGDGDTDYNGKLKDKATLTAYKSSSTAYLQLSSLTSEDSAVYFCARWLGGFTSWGQGTLVTVSA VL: QIVLSQSPAILSASPGEKVTMTCRASASVSYMHWYQQKPGSSPKPWIYATSNLASGVPARFSGSGSGTSYSLTISRVEAEDAATYYCQQWSSDPPTFGAGTKLELK |  |  | 4.47 nM |
| 45.75D4.D3.D9 (antibody, V domains shown) VH: EVQLQQSGPELVKPGASMKMSCKASGYKFTSYVMHWVKQKPGQGLEWIGYIDPYNDGSKYNEKFKGKATLTSDKSSSIAYMELSSLTSEDSAVFYCARGGSRGWYFDVWGAGTTVTVSS VL: DIQMTQSPASLSASVGETVTFTCRTNENIYSYLTWYQQKQGKSPQVLVYNAKTLAEGVPSRFSGSGSGTQFSLKINSLQPEDFGSYFCQHHFGNPLTFGAGTKLELK |  |  | 1.09 nM |
| 45.31G8.E9 (antibody, V domains shown) VH: QIQLQQSGAELVRPGTSVKMSCKAVGYTFTNYWINWVKQRPGHGFEWIGDIYPGGYYINYNEKFKGKATLTADTSSSTAYMQLSSLTSEDSAIYYCARGYGSYAMDYWGQGTSVTVSS VL: DIVMTQSQKFMSTSVGDRVSITCKASQNVRTDVVWYQQKPGQSPKALIFLASNRHTGVPDRFTGSGSGTDFTLTISNVQSEDLADYFCLQHWNYPYTFGGGTKLEIK |  |  | 0.776 nM |
| 45.62B12.G5 (antibody, V domains shown) VH: DVQLQESGPGLVKPSQSLSLTCTVTGYSITSAYDWHWIRHFPGNILEWMGYIRNSGSTNYNPLLKSRISITHDTSQNHFSLKLNSVTTEDTATYYCARGLFWYFDVWGAGTTVTVSS VL: DIQMTQSPASLSASVGETVTITCRASENIYNYLTWYQQKQGKSPQLLVYNAKTLAEGVPSRFSGSGSGTQFSLKINSLQPEDFGSYYCQHHYGNPLTFGAGTKLELK |  |  | 0.862 nM |

Second part, the binder after the results:

| Kd [1] | Kd [2] | Kd [3] | Binder |
| --- | --- | --- | --- |
| 4.17 nM |  |  | hu50C2 HAM (45.50C2.A6) (antibody, V domains shown) VH: QVQLQESGPGLVKPSETLSLTCTVSGFSLTNYNINWIRQPPGKGLEWIGVIWNGGGTNYNSAFMSRVTISKDTSKNQVSLKLSSVTAADTAVYYCVREAYFSNYGFYFDYWGQGTLVTVSS VL: DIQMTQSPSSLSASVGDRVTITCSASSSISSNYLHWYQQKPGKAPKLLIYRTSNLASGVPSRFSGSGSGTDFTLTISSLQPEDFATYYCQQGSSIPRTFGGGTKVEIK |
| 1.46 nM |  |  | hu50C2 (45.50C2.A6) (antibody, V domains shown) VH: QVQLQESGPGLVKPSETLSLTCTVSGFSLTNYNINWIRQPPGKGLEWIGVIWTGGGTNYNSAFMSRVTISKDTSKNQVSLKLSSVTAADTAVYYCVREAYFSNYGFYFDYWGQGTLVTVSS VL: DIQMTQSPSSLSASVGDRVTITCSASSSISSNYLHWYQQKPGKAPKLLIYRTSNLASGVPSRFSGSGSGTDFTLTISSLQPEDFATYYCQQGSSIPRTFGGGTKVEIK |
|  | 19.2 nM |  | 50C2 Affinity Matured (HAM) (antibody, V domains shown) VH: QVQLQESGPGLVKPSETLSLTCTVSGFSLTNYNINWIRQPPGKGLEWIGVIWNGGGTNYNSAFMSRVTISKDTSKNQVSLKLSSVTAADTAVYYCVREAYFSNYGFYFDYWGQGTLVTVSS VL: DIQMTQSPSSLSASVGDRVTITCSASSSISSNYLHWYQQKPGKAPKLLIYRTSNLASGVPSRFSGSGSGTDFTLTISSLQPEDFATYYCQQGSSIPRTFGGGTKVEIK |
| 0.271 nM |  |  | hu32B10 HAM (45.32B10.A4) (antibody, V domains shown) VH: EVQLLESGGGLVQPGGSLRLSCAASGFTFSNYVMSWVRQAPGKGLEWVSTITSGGTYTYYPDSVKGRFTISRDNSKNTLYLQMNSLRAEDTAVYYCTRWLLSLYAMDYWGQGTTVTVSS VL: DIQMTQSPSSLSASVGDRVTITCRASQDISNFLNWYQQKPGKAVKLLLYYTSRLHSGVPSRFSGSGSGTDYTLTISSLQPEDFATYFCQQFKTYPYTFGGGTKVEIK |
| 1.61 nM |  |  | hu32B10 (45.32B10.A4) (antibody, V domains shown) VH: EVQLLESGGGLVQPGGSLRLSCAASGFTFSNYVMSWVRQAPGKGLEWVSTITSGGTYTYYPDSVKGRFTISRDNSKNTLYLQMNSLRAEDTAVYYCTRWLLSLYAMDYWGQGTTVTVSS VL: DIQMTQSPSSLSASVGDRVTITCRASQDISNFLNWYQQKPGKAVKLLLYYTSRLHSGVPSRFSGSGSGTDYTLTISSLQPEDFATYFCQQGKTYPYTFGGGTKVEIK |
|  |  | 1.23 nM | 45.102D4.C12.C6 (antibody, V domains shown) VH: EVQLQQSGPELVKPGASVKMSCKASGYTFTTYVIHWVKQKPGQGLEWIGYINPYNDGTKYNEKFKVKATLTSDKSSSTAYMELSSLTSEDSAVYYCARSFYVNYGFAYWGQGTLVTVSA VL: DIVMTQAHKFMSTSVGDRVSITSKASQDVRTAVAWYQQKPGQSPKLLIYSASYRYTGVPDRFTGSGSGADFTFTISSVQAEDLAVYYCQQHYITPWTFGGGTKLEIK |
|  | 45.9 nM |  | 50C2 Original (antibody, V domains shown) VH: QVQLKESGPGLVAPSQSLSITCTVSGFSLTNYNINWIRQPPGKGLEWLGVIWTGGGTNYNSAFMSRLSISKDNSKSQVFLKMNRLQTDDTAIYYCVREAYFSNYGFYFDYWGQGTTLTVSS VL: EIVLTQSPTTMAASPGEKITITCSASSSISSNYLHWYQQKPGFSPKLLIYRTSNLASGVPARFSGSGSGTSYSLTIGTMEAEDVATYYCQQGSSIPRTFGGGTKLEIK |
|  |  | 4.75 nM | 45.87B8.H2.H5 (antibody, V domains shown) VH: DVQLQESGPGLVKPSQSLSLTCTVTGYSITSAYDWHWIRLFPGHILEWMGYISYSGNTIYNPSLKSRISITHDTSKNHFFLKLNSVTTEDTATYYCARGSFWYFDVWGAGTTVTVSS VL: DIQMTQSPASLSASVGETVTITCRVSEHIYNYLAWYQQKQGKSPQLLVYNAKTLAEGVPSRFSGSGSGTQFSLKINSLQPEDFGTYYCQHNYGNPLTFGAGTKVELK |
|  |  | 0.784 nM | 45.86C5.C3 (antibody, V domains shown) VH: DVQLQESGPGLVKPSQSLSLTCTVTGYSITSGYDWHWIRHFPGNILEWMGYISDSGNTIYSPSLKSRISITHDTSKNHFFLKLNSVTSEDTATYYCARGSFWYFDVWGAGTTVTVSS VL: DIQMTQSPASLSASVGETVTITCRVSENIYSYLAWYQQKQGKSPQLLVYNTKTLAEGVPSRFSGSGSGTQFSLKINSLQPEDFGSYYCQHHYGNPLTFGAGTKLELK |
